# Assay results from patent US20060141546A1, “Bacterial test method by glycated label binding” (priority 2002, published 2006).
# B1: ALP: bovine intestinal alkaline phosphatase, glycoprotein enzyme that binds bacteria and serves as label (protein, UniProt P19111 20-506, looked up)
# Intestinal-type alkaline …: LVPVEEEDPAFWNRQAAQALDVAKKLQPIQTAAKNVILFLGDGMGVPTVTATRILKGQMNGKLGPETPLAMDQFPYVALSKTYNVDRQVPDSAGTATAYLCGVKGNYRTIGVSAAARYNQCKTTRGNEVTSVMNRAKKAGKSVGVVTTTRVQHASPAGAYAHTVNRNWYSDADLPADAQMNGCQDIAAQLVNNMDIDVILGGGRKYMFPVGTPDPEYPDDASVNGVRKRKQNLVQAWQAKHQGAQYVWNRTALLQAADDSSVTHLMGLFEPADMKYNVQQDHTKDPTLQEMTEVALRVVSRNPRGFYLFVEGGRIDHGHHDDKAYMALTEAGMFDNAIAKANELTSELDTLILVTADHSHVFSFGGYTLRGTSIFGLAPSKALDSKSYTSILYGNGPGYALGGGSRPDVNDSTSEDPSYQQQAAVPQASETHGGEDVAVFARGPQAHLVHGVEEETFVAHIMAFAGCVEPYTDCNLPAPTTATSIPD
# Tests used:
# [1] = system: E. coli; experiment: Membrane (Loprodyne) separation of bacteria bound ALP (Example 6, Table 4); assay type: binding
# Experimental: Bacteria bound to alkaline phosphatase (ALP) can be separated using a membrane (low protein binding Nylon 66 Loprodyne) on backed microtiter plates (Nunc Nalge International).
# The loprodyne-membrane-backed plates were treated with 1 or 2% detergent (Tween 20 or TritonX305) in water or buffers (TBS: Tris, 25 mM, pH 7.6 containing 150 mM NaCl or KCO3: 0.1M, pH 9.6) overnight at room temperature. Blocking solutions were vacuum filtered. […] The combined solution was incubated for 15 min at 37° C. on a shaker and then added to the loprodyne-membrane-backed plate.
# The solution was vacuum filtered leaving bacteria adhered on the membrane and then washed twice with 2% Tween20 in water. To the washed membrane, 200 μl of H2O with 50 μl Glycine (0.05M, pH 10.4) and containing 1 mM PNPP were added and the color formed due to the bacteria bound ALP read at 405 nm.
# The separation of E. Coli with bound ALP from unbound ALP is shown by a size exclusion membrane in Example 6 and by centrifugation in Examples 1-5. The size of E. Coli is 1×1×2 μm and any membrane, filter or device trapping particles of this size would be acceptable. These include microfluidic devices, filters, column chromatography and chromatography strips. The mass of E. Coli is 1.6×10^−12 gm/cell and any membrane, filter or device trapping a mass of this size would be also acceptable.
# [2] = system: Citrobacter freundii; experiment: ALP binding compared to E. coli (Table 1)
# Experimental: (§1) Bacterial cells ([…] to 10^8 cells/mL) were washed twice with water after centrifugation to separate the cells into a packed pellet from supernatant liquid. The washed cells in pellet form were suspended in 40 μL water and 10 μL of aqueous bovine intestinal alkaline phosphatase (ALP) was added (2 μg or […]). The mixture was left at room temperature for 30 minutes and then centrifuged, after which the bacterial pellets were washed with water 4-5 times (50 μL). All the washing supernatants were combined. A blank without cells was diluted in the same way. The final pellets were suspended in 50 μl water and both supernatants and cell suspensions were assayed for detection of ALP binding using 2.5 μl of 0.005 M para-nitrophenol phosphate (PNPP) in Tris or EPPS buffer at pH 7.5. The hydrolysis of the substrate results in yellow (PNPP) or blue-green (BCIP) color that is directly proportional to the amount of ALP bound to the bacteria. Alkaline phosphatase (ALP) activity was tested using common substrates such as BCIP (bromo-chloro-indolyl-phosphate) forming a blue/green color in Tris buffer, pH 7.5. After 10 minutes at room temperature the samples were read in a plate reader (Biotek Powerwave Absorbance Reader) at a wavelength of 405 nm. The parallel set of bacteria was run without addition of ALP as controls.
# (§2) The bacteria used to illustrate the invention represent the extremes of gram positive (S. facaelis) and gram negative (E. coli) bacteria. […] The nature of the difference in the cell walls is greatest between the gram negative and positive forms of bacteria.
# [3] = system: Klebsiella oxytoca; experiment: ALP binding compared to E. coli (Table 1)
# Experimental: as §1, §2
# [4] = system: Citrobacter koseri; experiment: ALP binding compared to E. coli (Table 1)
# Experimental: as §1, §2
# [5] = system: Morganella morganii; experiment: ALP binding compared to E. coli (Table 1)
# Experimental: as §1, §2
molecule,measurement,setting,value
B1,Bacteria Binding to ALP (O.D. at 405 nm),"[1]; No Bacteria, ALP concentration 1.0 mU",0.04 O.D.
same,Bacteria Binding to ALP (O.D. at 405 nm),"[1]; No Bacteria, ALP concentration 2.0 mU",0.05 O.D.
same,Bacteria Binding to ALP (O.D. at 405 nm),"[1]; No Bacteria, ALP concentration 5.0 mU",0.16 O.D.
same,Bacteria Binding to ALP (O.D. at 405 nm),"[1]; Plus Bacteria, ALP concentration 1.0 mU",0.13 O.D.
same,Bacteria Binding to ALP (O.D. at 405 nm),"[1]; Plus Bacteria, ALP concentration 2.0 mU",0.30 O.D.
same,Bacteria Binding to ALP (O.D. at 405 nm),"[1]; Plus Bacteria, ALP concentration 5.0 mU",0.83 O.D.
same,ALP binding relative to E. coli,[2],89%
same,ALP binding relative to E. coli,[3],111%
same,ALP binding relative to E. coli,[4],93%
same,ALP binding relative to E. coli,[5],95%
